The target of experiment [1] is T1, human TrkB-His (human, UniProt Q16620 32-430).
T1 construct: in-house fusion of the TrkB ECD with poly-His, HEK293; also called huTrkB-His; hTrkB-His; not shown: poly-His tag
Description: BLI off-rate, mAb captured.

The target of the next experiment is human TrkA-His (human, UniProt P04629 33-417, limits assumed). The experiment is described as follows: ELISA. (In general: ELISA stands for enzyme-linked immunosorbent assay.)
The next experiment deals with human TrkC-His (human, UniProt Q16288 32-429). Description: ELISA.
A further experiment concerns the target T2, mouse TrkB-ECD-GST (mouse, UniProt P15209 32-429).
T2 construct: extracellular domain; in-house fusion, HEK293; also called mTrkB-ECD-GST; mTrkB (ELISA); not shown: glutathione S-transferase (GST) fusion part
Description: ELISA.

Experiment [2] deals with TrkB in PathHunter eXpress TrkB Functional Assay cells (modified U2OS). The experiment is described as follows: cell-based or functional assay.
Experiment [3] deals with T1, human TrkB-His. Description: ELISA.

Sequence of human TrkA-His (P04629 33-417 limits assumed): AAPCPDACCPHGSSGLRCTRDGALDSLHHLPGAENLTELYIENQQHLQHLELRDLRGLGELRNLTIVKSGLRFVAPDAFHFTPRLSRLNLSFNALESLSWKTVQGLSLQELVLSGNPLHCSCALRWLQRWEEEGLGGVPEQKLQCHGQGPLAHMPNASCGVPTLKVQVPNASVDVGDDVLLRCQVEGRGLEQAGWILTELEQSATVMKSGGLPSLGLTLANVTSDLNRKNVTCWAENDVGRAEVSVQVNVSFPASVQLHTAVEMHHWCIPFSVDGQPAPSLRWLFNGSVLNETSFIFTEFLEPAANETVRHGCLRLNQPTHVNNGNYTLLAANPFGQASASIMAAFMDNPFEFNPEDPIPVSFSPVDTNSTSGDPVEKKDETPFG

B1: anti-TrkB clone 1E02 (antibody, V domains shown)
VH: QVQLLQSAAEVKKPGESLKISCKGSGYRFTSYWIGWVRQMPGKGLEWVGIIYPDDSDTRYSPSFQGQVTISADTSISTTYLQWSSLKASDTAIYYCASGEVAFDVWGQGTTVTVSS
VL: QSVLTQPPSLSVSPRQTASITCSGDKLGDKFVSWYQQKPGQSPVLVIYQDTKRPSGIPERFSGSNSGNTATLTISGTQAMDEADYYCQAWDSSTGVFGGGTKLTVL
notes: full-length IgG
With B1, the koff (commonly a measure of how fast the partners let go of each other) with human TrkB-His [1] was 0.00318 s⁻¹. For the same molecule, the binding result was “no binding (tested: up to 10 µg/mL)” with human TrkA-His, “no binding (tested: up to 10 µg/mL)” with human TrkC-His and “binds” with mouse TrkB-ECD-GST. Also, in experiment [2], the “TrkB activation (EC50)” value was found to be 0.047 µg/mL.

B2: anti-TrkB clone 2C07 (antibody, V domains shown)
VH: QVQLQQSGGGVVQPGRSLRLSCAASGFTFSNYAMHWVRQAPGKGLEWVAVISYDGSNEYYADSVKGRFTISRDNSRNTLDLQMNSLRAEDTAVYYCARGTNYGMDVWGQGTMVTVSS
VL: LSELTQDPAVSVALGQTVRITCQGDSLRSYYASWYQQKPGQAPVLVIYGKNNRPSGIPDRFSGSDSGKTASLTITGAQAEDEADYYCQSRDTTGNYLLFGGGTKLTVL
notes: full-length IgG
Turning to B2, in the experiment with human TrkB-His [1], the koff was 0.00399 s⁻¹. Moreover, the binding result in the experiment with human TrkA-His is reported as “no binding (tested: up to 10 µg/mL)”; with human TrkC-His, “no binding (tested: up to 10 µg/mL)”; with mouse TrkB-ECD-GST it was “binds”. Besides, the “TrkB activation (EC50)” value in experiment [2] worked out at 0.036 µg/mL.

B3: anti-TrkB clone 4G12 (antibody, V domains shown)
VH: EVQLVQSGAEVKKPGESLKISCKGSGYSFTSYWIGWVRQMPGKGLEWMGIIYPGDSDTRYSPSFQGQVTISADKSISTAYLQWSSLKASDTAMYYCARHDYGMDVWGQGTTVTVSS
VL: QSVLTQPPSVSVSPGQTASITCSGDKLGDKFASWYQQKPGQSPVLVIYQDNKRPSRVPERFSGSNSGNTATLTISETQAMDEADYYCQAWVNNTVVFGGGTKVTVL
notes: full-length IgG
B3 had a koff with human TrkB-His [1] of 0.00545 s⁻¹. In addition, the binding result is given as “no binding (tested: up to 10 µg/mL)” in the experiment with human TrkA-His, “no binding (tested: up to 10 µg/mL)” in the experiment with human TrkC-His and “binds” with mouse TrkB-ECD-GST. In experiment [2], the “TrkB activation (EC50)” value came to 0.07 µg/mL.

B4: anti-TrkB clone 5A07 (antibody, V domains shown)
VH: QVQLVQSGAEVKKPGESLKISCKGSGYSFTSYWIGWVRQMPGKGLEWMGIIYPGDSDTRYSPSFQGQVTISADKSISTAYLQWSSLKASDTAMYYCARHDYGMDVWGQGTMVTVSS
VL: LPVLTQPPSASGTPGQRVTISCSGSRSNVGGNTVSWYQQLPGSAPKLLIYTNNQRPSGVPDRFSGSKSGTSASLAISGLQSEDEADYYCAAWDDSLNGYVFGTGTQLTVL
notes: full-length IgG
In the experiment with human TrkB-His [1], B4 showed a koff of 0.00544 s⁻¹. Besides, the values for the binding result with human TrkA-His, with human TrkC-His and with mouse TrkB-ECD-GST were “no binding (tested: up to 10 µg/mL)”, “no binding (tested: up to 10 µg/mL)” and “binds”, respectively. In addition, the “TrkB activation (EC50)” value in experiment [2] worked out at 0.13 µg/mL.

B5: anti-TrkB clone 6B11 (antibody, V domains shown)
VH: QVQLQQSGAGLVKASQTLALTCAISGDSVSSNSAAWNWIRQSPSRGLEWLGRTYYRSKWYNDYAVSVKSRITINPDTSTNQFSLQLNSVTPEDTAVYYCTRGTGDKRAFDYWGQGTLVTVSS
VL: QSVLTQPPSASGTPGQRVTISCSGSSSNIGSYFVSWYQQLPGTAPKLLIYRNDKRPSGVPERFSGSKSGTSASLAISGLQSEDEADYYCAAWDDSLSGRIFGGGTKLTVL
notes: full-length IgG
Take B5: the off-rate (koff) with human TrkB-His [1] stood at 0.00687 s⁻¹. For the same molecule, the binding result is on record as “no binding (tested: up to 10 µg/mL)” with human TrkA-His, “no binding (tested: up to 10 µg/mL)” with human TrkC-His and “binds” with mouse TrkB-ECD-GST. Moreover, in experiment [2], the “TrkB activation (EC50)” value is 0.11 µg/mL.

B6: anti-TrkB clone 6E08 (antibody, V domains shown)
VH: QVQLVQSGGGVVQPGRSLRLSCAASGFTFSSYAMHWVRQAPGKGLEWVAVISYDGSNKYYADSVKGRFTISRDNSKNTLYLQMNSLRAEDTAVYYCARAFRRYDAFDIWGQGTLVTVSS
VL: DIQMTQTPLSLSVTLGQPASISCRSSQGLVYSDGNTYLNWFQQRPGQSPRRLIYKVSNRDSGVPDRFSGSGSGTDFTLKISRVEAEDVGVYYCMQGTHWPPAFGQGTKVEIK
notes: full-length IgG
Consider B6, for which the koff with human TrkB-His [1] was determined as 0.0064 s⁻¹. Also, the binding result with human TrkA-His is recorded as “no binding (tested: up to 10 µg/mL)”; in the experiment with human TrkC-His, “no binding (tested: up to 10 µg/mL)”; with mouse TrkB-ECD-GST, “binds”. Moreover, in experiment [2], the “TrkB activation (EC50)” value was determined as 4.2 µg/mL.

B7: anti-TrkB clone 3C12 (antibody, V domains shown)
VH: QVQLVQSGAEVKKPGESLKISCKGSGYSFTSYWIGWVRQMPGKGLEWMGIIYPGDSDTRYSPSFQGQVTISADKSISTAYLQWSSLKASDTAMYYCTRSSFNDHWGQGTLVTVSS
VL: QPVLTQPPSVSVSPGQTASITCSGDKLGNKFVSWFQQKPGQSPVLVIYQDTKRPSGIPERFSGSNSGSTATLTITGTQAMDDADYYCQAWNTNTALFGGGTKLTVL
notes: full-length IgG
B7 had a koff in the experiment with human TrkB-His [1] of 0.000586 s⁻¹. Moreover, the binding result is recorded as “no binding (tested: up to 10 µg/mL)” with human TrkA-His, “no binding (tested: up to 10 µg/mL)” in the experiment with human TrkC-His and “binds” in the experiment with mouse TrkB-ECD-GST. In addition, in experiment [2], the “TrkB activation (EC50)” value is 0.018 µg/mL.

B8: KiH.F5_TrkB × 8A05_CD3 (bispecific antibody)
scFv: not shown
VH: QVQLQQSGGGLVQSGGSLRLSCAASGFSFGSSAMSWVRQAPGRGLEWVSGISHSGSTTYYADSVKGRFTISRDNSKNTLYLQMNSLRVEDTAVYYCAKIGAYGYYFHYWGQGTLVTVSS
VL: NFMLTQPHSVSESPGKTVTISCTRSGGSIASNYVQWYQQRPGSSPTTVIYDDNQRPSGVPDRFSGSIDSSSNSASLTISGLKTEDEADYYCQSSDNINHVIFGGGTKLTVL
notes: scFv-knob-Fc (IgG1 T366W/S354C) + Fab-hole-Fc (T366S/L368A/Y407V/Y349C); also called F5-8A05; F5_8A05
In the case of B8, the binding result with human TrkB-His [3] is “binds”.

B9: KiH.F5_TrkB × 3G07_CD3 (bispecific antibody)
scFv: not shown
VH: QVQLQQSGGGLVQPGGSLRLSCAASGFSFGSSAMSWVRQAPGRGLEWVSGISHSGSTTYYADSVKGRFTISRDNSKNTLYLQMNSLRVEDTAVYYCAKIGAYGYYFHYWGQGTLVTVSS
VL: NFMLTQPHSLSESPGKTVTISCTRSSGSIASKYVQWYQQRPGSAPTTVIYDDKQRPSGVPDRFSGSFDSSSNSASLTISGLKTEDEADYYCQSFDSTNQAVVFGGGTKLTVL
notes: scFv-knob-Fc (IgG1 T366W/S354C) + Fab-hole-Fc (T366S/L368A/Y407V/Y349C); also called F5-3G07; F5_3G07
Regarding B9, the binding result with human TrkB-His [3] is listed as “binds”.

B10: KiH.F5_TrkB × 1A09_CD3 (bispecific antibody)
scFv: not shown
VH: EVQLVQSGGGLVKPGGSLRLSCAASGFTFSSYSMNWVRQAPGKGLEWVSSISSSSSYIYYADSVKGRFTISRDNSKNTLYLQMNSLRAEDTAVYYCARVKDYDSSLDYWGQGTLVTVSS
VL: SYELMQPPSVSVSPGQTARITCSGFKLGDKYVSWYQQKPGQSPVLVIYQDSKRPSGIPERFSGSNSGNTATLTISGTQAMDEADYYCQAWDSSTVVFGGGTKLTVL
notes: scFv-knob-Fc (IgG1 T366W/S354C) + Fab-hole-Fc (T366S/L368A/Y407V/Y349C); also called F5×1A09; F5-1A09
Regarding B10, the binding result with human TrkB-His [3] is reported as “binds”.

B11: KiH.3H11_TrkB × 1A09_CD3 (bispecific antibody)
scFv: QVQLQQSGPGLVKPSQTLSLTCAISGDSVSSNSAVWNWIRQSPSRGLEWLGRTYYRSKWYTDFAVSVKSRITINPDTSKNQFSLQLNSVTPEDTAVYYCARGRNGMDVWGQGTMVTVSTSSGGGGSGGGGSGGSALLPVLTQPPSASGTPGQRVTISCSGSSSNIGHKYVYWYQQLPGAAPKLLIYRNNQRPSGVPDRFSASKSGTSASLAISGLRSEDEADYYCATWDDSLNGVVFGGGTKVTVL
VH: EVQLVQSGGGLVKPGGSLRLSCAASGFTFSSYSMNWVRQAPGKGLEWVSSISSSSSYIYYADSVKGRFTISRDNSKNTLYLQMNSLRAEDTAVYYCARVKDYDSSLDYWGQGTLVTVSS
VL: SYELMQPPSVSVSPGQTARITCSGFKLGDKYVSWYQQKPGQSPVLVIYQDSKRPSGIPERFSGSNSGNTATLTISGTQAMDEADYYCQAWDSSTVVFGGGTKLTVL
notes: scFv-knob-Fc (IgG1 T366W/S354C) + Fab-hole-Fc (T366S/L368A/Y407V/Y349C); also called 3H11-1A09
Take B11: the binding result with human TrkB-His [3] is reported as “binds”.

B12: anti-TrkB clone 2E02 (antibody, V domains shown)
VH: QVQLQQSGPGLVKPSQTLSVTCVISGDSVSSKSAAWHWIRQSPSRGLEWLGRTYYRSKWYSDYGESVKSRVVINADTSNNQISLQLSSVTPEDTAAYYCARGIGSLNFDIWGQGTMVTVSS
VL: QSVLTQPPSASGSPGQSVTISCTGTSGDVGGYNYVSWYQQHPGKAPKLILYEVTKRPSGVPDRFSGSKSGNTASLTVSGLQAEDEADYYCSSYGGPNNLVLFGGGTKVTVL
notes: full-length IgG
In the case of B12, the off-rate (koff) with human TrkB-His [1] turned out to be 0.0113 s⁻¹. For the same molecule, the binding result was “no binding (tested: up to 10 µg/mL)” in the experiment with human TrkA-His, “no binding (tested: up to 10 µg/mL)” with human TrkC-His and “binds” with mouse TrkB-ECD-GST. Also, the “TrkB activation (EC50)” value in experiment [2] worked out at 0.12 µg/mL.

B13: anti-TrkB clone 1F01 (antibody, V domains shown)
VH: QVQLQQSGPGLVKPAQTLSLTCDISGDSVSSKSAAWHWIRQSPSRGLEWLGRTYYRSKWYSDYGESVKSRVVINADTSNNQISLQLSSVTPEDTAAYYCARGIGSLNFDIWGQGTMVTVSS
VL: QSVVTQPASVSGSPGQSITISCTGTSSDIGGYDYVSWYQQHPGKAPKLMIFDVSNRPSGVSNRFSGSKSGNTASLTISGLQADDEADYYCSSYRAGSTLNLLFGGGTKLTVL
notes: full-length IgG
Take B13: in the experiment with human TrkB-His [1], the koff turned out to be 0.011 s⁻¹. The binding result is on record as “no binding (tested: up to 10 µg/mL)” with human TrkA-His, “no binding (tested: up to 10 µg/mL)” with human TrkC-His and “binds” with mouse TrkB-ECD-GST. Further, the “TrkB activation (EC50)” value in experiment [2] is 0.51 µg/mL.

B14: anti-TrkB clone 5C01 (antibody, V domains shown)
VH: QMQLVQSGAEVKKPGESLKISCKGSGYSFTSYWIGWVRQMPGKGLEWLGIIYPGDSDTRYSPSFQGQVTISADKSISTAYLQWSSLKASDTAMYYCARLGQGSGPFDYWGQGTLVTVSS
VL: QSVVTQPPSVSGTPGQRVSISCSGSSSNIGSHSVTWFQQLPGTAPKLLIYGNSQRPSGVPDRFSGSKSGTSASLAISGLQSEDEADYYCASWDDSLNGYVFGTGTKLTVL
notes: full-length IgG
As for B14, the koff with human TrkB-His [1] amounted to 0.00491 s⁻¹. The binding result with human TrkA-His is “no binding (tested: up to 10 µg/mL)”; in the experiment with human TrkC-His, “no binding (tested: up to 10 µg/mL)”; with mouse TrkB-ECD-GST, “binds”. Besides, the “TrkB activation (EC50)” value in experiment [2] was found to be 0.08 µg/mL.

The record behind these values is patent US20260092121A1 (TALEM THERAPEUTICS, published 2026).
